PMC6533540, “DprA Is Essential for Natural Competence in Riemerella anatipestifer and Has a Conserved Evolutionary Mechanism”

B1: RA-ssDNA1 (ssDNA)
DNA: TAGGCTCTGCTAAGGAAGCGTGGGGTCTGTCTAAGTTGGA
B2: dsDNA annealed from RA-ssDNA1 (dsDNA)
DNA 1: TAGGCTCTGCTAAGGAAGCGTGGGGTCTGTCTAAGTTGGA
DNA 2: TCCAACTTAGACAGACCCCACGCTTCCTTAGCAGAGCCTA
B3: RA-ssDNA2 (ssDNA)
DNA: AAAAACTACGGAACTGACTAAAGGCAGAAAAACTAAACGG

Target: T1, DprA R123E (Riemerella anatipestifer ATCC11845, UniProt E4TBU2 1-367, R123E)
T1 sequence: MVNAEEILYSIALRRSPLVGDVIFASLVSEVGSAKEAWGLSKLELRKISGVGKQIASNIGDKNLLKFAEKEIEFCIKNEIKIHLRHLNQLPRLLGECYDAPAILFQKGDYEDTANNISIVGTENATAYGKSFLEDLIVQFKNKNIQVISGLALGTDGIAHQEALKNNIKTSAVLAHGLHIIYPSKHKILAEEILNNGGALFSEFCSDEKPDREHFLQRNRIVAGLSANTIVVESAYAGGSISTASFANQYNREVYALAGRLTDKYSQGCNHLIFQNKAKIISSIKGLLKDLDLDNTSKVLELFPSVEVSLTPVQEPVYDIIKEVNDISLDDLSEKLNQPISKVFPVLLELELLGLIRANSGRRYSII
Test: EMSA; up to 20 uM DprA R123E; 25 mM HEPES pH 7.0, 150 mM NaCl, 10% glycerol, 1 mM DTT, 0.05% IGEPAL, 30 min at 30 C; 8% native PAGE in 0.5x TBE on ice
Settings: protein: recombinant, tags: C-terminal His6, chain copies: 2, label: biotin

Binder | binding result | binding result (blunt)
B1 | no binding | –
B2 | – | no binding
B3 | no binding | –
